How the values were obtained:
[1] = molecular target: Glycine oxidase from Pseudoalteromonas luteoviolacea CPMOR-2 (PlGoxA) (Pseudoalteromonas luteoviolacea CPMOR-2); assay: SEC
[2] = molecular target: Glycine oxidase from Pseudoalteromonas luteoviolacea CPMOR-2 (PlGoxA) (Pseudoalteromonas luteoviolacea CPMOR-2); assay: crystal structure

stoichiometry N [1]: 4
stoichiometry N [2]: 4
Substance: Glycine oxidase from Pseudoalteromonas luteoviolacea CPMOR-2 (PlGoxA) (enzyme)

Reference: paper PMC5886718
